Results as given in patent publication US10370433B2, “Compositions and methods for diagnosis and treatment of cancer” (BIONTECH AG, priority 2015, dated 2019).

What was measured:
[1] = molecular target: T1, recombinant human Seprase (rhuSeprase) (Homo sapiens, UniProt Q12884); assay: Surface plasmon resonance (Biacore T100) on immobilized rhuSeprase; assay type: binding
T1 construct: named pCEP4-IgKappa-huSeprase-coCHO_26-760aa-H6 and used for the generation of recombinant soluble human Seprase (rhuSeprase); mouse Ig kappa-chain V-J2-C secretion signal (N, cleaved yes); made in house; host or cells: FreeStyle CHO-S cells (transient transfection; purified from supernatant by Ni-chelate and SEC)
T1 sequence (Q12884 26-760): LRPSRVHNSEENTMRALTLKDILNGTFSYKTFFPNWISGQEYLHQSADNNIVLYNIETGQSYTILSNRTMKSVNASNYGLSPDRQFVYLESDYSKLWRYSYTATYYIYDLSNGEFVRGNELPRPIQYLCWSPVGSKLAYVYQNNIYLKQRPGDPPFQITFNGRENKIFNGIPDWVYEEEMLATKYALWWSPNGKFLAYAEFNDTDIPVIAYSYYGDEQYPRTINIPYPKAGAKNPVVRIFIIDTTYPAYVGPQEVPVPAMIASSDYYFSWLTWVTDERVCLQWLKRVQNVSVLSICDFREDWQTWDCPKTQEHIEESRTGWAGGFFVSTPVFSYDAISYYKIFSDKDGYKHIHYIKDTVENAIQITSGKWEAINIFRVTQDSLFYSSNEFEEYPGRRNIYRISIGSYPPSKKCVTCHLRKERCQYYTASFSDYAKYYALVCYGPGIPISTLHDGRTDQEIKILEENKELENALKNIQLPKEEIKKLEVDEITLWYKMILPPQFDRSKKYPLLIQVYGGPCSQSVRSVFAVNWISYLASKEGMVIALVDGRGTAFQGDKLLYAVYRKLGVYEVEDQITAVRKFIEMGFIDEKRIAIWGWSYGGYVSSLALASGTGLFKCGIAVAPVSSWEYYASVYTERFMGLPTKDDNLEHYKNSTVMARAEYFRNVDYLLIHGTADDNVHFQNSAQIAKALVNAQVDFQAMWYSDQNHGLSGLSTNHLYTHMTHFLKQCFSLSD

[2] = system: CHO-K1-huSeprase tumors; assay: Biodistribution and tumor targeting of AlexaFluor-680 conjugates, near-infrared optical imaging; assay type: in vivo, Fox n1 nu mice
Description: For in vivo imaging assays female Fox n1 nu mice (6-8 weeks of age, Harlan, Envigo) were used. The experiments were performed according to national regulations and approved by the local animal experiments ethical committee. Subconfluent CHO-K1-huSeprase cells were harvested and resuspended in PBS to a density of 1×10^7 cells/ml. Prior to inoculation, cell viability was tested by 0.4% trypan blue exclusion assay (viable cells>90%). For subcutaneous injection 1×10^6 CHO-K1-huSeprase cells in 100 μl PBS were mixed with 100 μl Matrigel (Corning) and injected into the right side of the limb. When tumor volumes reached 600-800 mm^3, animals were randomly separated into several groups for different treatments (n=3 per each group). […] At different time points after the injection, mice were anaesthetized by inhalation of isoflurane. In vivo imaging was conducted using a Xenogen IVIS Spectrum imaging System (Perkin Elmer, USA). Maximal near infrared signals (NIRF) were quantified using Living Image 2.5 (Xenogen, Perkin Elmer) image analysis software. For ex vivo NIRF imaging, the mice were sacrificed, and the tumor and major organs of each mouse were excised, weighed and analyzed by Xenogen IVIS System.
To analyze the pharmacokinetic and tumor targeting properties of the AF680-(MC-FA-012)3 trimer biodistribution in female Fox n1 nu mice was monitored at six time points after injection (1, 2, 4, 6, 24 and 96 h). […] After each time point biodistibution was measured in vivo and ex vivo using a Xenogen Imaging system (FIG. 14 A+B). […] Overall, the background signals for the binder and for the non-binding control were in the same range.

B1: AF680-(MC-FA-012)3: AlexaFluor 680 conjugated MC-FA-012 trimer (conjugate)
chain 1: GACPYSNWTPGRGPDCRRDSDCPGRCICRGNGYCG
chain 2: GACPYSNWTPGRGPDCRRDSDCPGRCICRGNGYCG
chain 3: GACPYSNWTPGRGPDCRRDSDCPGRCICRGNGYCG
modifications: left off: things letters cannot carry; small tags and cut ends
notes: AlexaFluor 680 conjugated MC-FA-012 trimer
[1]
  offrate, times slower compared to MC-FA-012: around 134 times
[1]; 1:1 binding model
  ka: 1.68e+07 M⁻¹ s⁻¹
[2]; mouse, in vivo
  kidney signals: strong kidney signals
  signals in lung, heart, spleen and liver: generally low
[2]; up to 24 h after injection
  tumor uptake: specific and significant tumor uptake
